The values that follow come from PMC10739146.

Data set [1] is described as follows: stepwise centrifugation P13/P100/S100, immunoblot. The note with it: glycan lost; control: wild type Rim21-HA.
The nature of data set [2]: GFP fluorescence microscopy with mRFP-Snc1(pm) marker. The note with it: glycan lost; control: wild type Rim21-2GFP.
Data set [3] can be described thus: cycloheximide chase, immunoblot, ± alkali. The note with it: glycan lost; control: wild type Rim21. A general note: Immunoblotting shows a protein as a band on a membrane.
Data set [4] can be described thus: anti-HA immunoblot of total lysate. The settings on record: glycan lost; control: wild type Rim21.

B1: Rim21: N15Q (protein)
parent chain: MNLWRHSPEELAAYNSCHPMKLGSGVLIQLPLYDNSAVYAEDITFRSFCCERVPVYVSTVLRNSSPYRYLDEVINDWQKFIQVSDYVGGSAEYAIYAVILSITSNFVITVFLTVICCINISGRAYKRILQLLRIASLLASLNLTIFITKVLRRLEKEHNVYGVVRAHSIMHIFSDDMTFVVLDFLATLMFQFCQVGIVIRLFQRAQEKRIIFFIGVILTITANILWVIPPFANHTTKHRNDWQILRPFVYLFRIAIATSYASIVIYHIWQKKKLWFKFNQMGLLTLLTILVVLLLPGFFLADVSNLWISELGEVFNTTCYVTSTVITWEWLDRLNVLERKEEAQSILGRPIFEEEQQDYRFAKYALRVQNALTRRESQDASTDRHDTSSNSEVCDLQTISRYDPEDQISVGRSIDRMHFNDRGTYKDVALKKLGYARDKILYFTDQIVQKSVGHNNSSSSKNEKTKQRKAMVRKRLGLDKPGIYIYSTKDVVFNSDEDDDENAEDEDDDEYEVGSEGNNNSSATFTSDHIGHI
In the case of B1, the localisation_or_trafficking entry in data set [1] was “changes”; in data set [2], “no change”. The degradation_or_half_life result in data set [3] is recorded as “increases”. For the same protein, in data set [4], the expression_or_secretion result is “increases”.
